Measured values taken from patent publication US20220396614A1 (DEUTSCHES KREBSFORSCHUNGSZENTRUM, published 2022).

Molecular target: Plasmodium falciparum circumsporozoite protein (PfCSP) on Pf NF54 salivary gland sporozoites (Plasmodium falciparum (NF54))
Experiment: cell-based or functional assay

B1: monoclonal antibody 2541 (antibody, V domains shown)
VH: QVQLVESGGGVVQPGRSLRLSCAASGFTFSSYGMHWVRQTTGKGLEWVAIIWHDGSKKYYADSVKGRLTISRDNSKNTLYLQMNSLRVEDTALYYCARVGDYSDFKYGAFDIWGQGTMVTVSS
VL: DIQMTQSPSTLSASVGDRVTITCRASQSISSWLAWYQQKPGKAPNLLIYKASTLESGVPSRFSGSGSGTEFTLTISSLQPDDFATYYCQQYNSYWTFGQGTRVEIK
  IC50, in vitro Pf-traversal inhibition assay: < 1 µg/mL
